Test results: patent US20230295310A1 (ABCELLERA BIOLOGICS, published 2023)

Biological target: human EGFR, C-terminal eGFP-tagged, on CHO-K1 cells (human, UniProt P00533 25-1210)
Experiment: cell-based or functional assay

Row | Binder | EC50 CHO-K1 EGFR Low (nM); T cell activation bioassay, luciferase | EC50 CHO-K1 EGFR Med (nM); T cell activation bioassay, luciferase
1 | GOMP001_bsAb_039 (bispecific antibody, human IgG1, kappa, L234A L235A) heavy 1: QVQLVQSGAEVKKPGASVKVSCKASGYTFTSHWMHWVRKAPGQGLEWIGEFNPSNGRTNYNEEFKSKATMTVDTSTNTAYMELSSLRSEDTAVYYCASRDYDYDGRYFDYWGQGTLVTVSSASTKGPSVFPLAPSSKSTSGGTAALGCLVADYFPEPVTVSWNSGALTSGVHTFPAVLQSSGLYSLSSVVTVPSSSLGTQTYICNVNHKPSNTKVDEKVEPKSCDKTHTCPPCPAPEAAGGPSVFLFPPKPKDTLMISRTPEVTCVVVDVSHEDPEVKFNWYVDGVEVHNAKTKPREEQYNSTYRVVSVLTVLHQDWLNGKEYKCKVSNKALPAPIEKTISKAKGQPREPQVYTLPPSREEMTDNQVSLTCLVKGFYPSDIAVEWESNGQPENNYKTTPPVLMSDGSFFLASKLTVDKSRWQQGNVFSCSVMHEALHNHYTQKSLSLSPG light 1: RIQMTQSPSSLSASVGDRVTITCSASSSVTYMYWYQDKPGKAPKLLIYDTSNLASGVPSRFSGSGSGTDYTFTISSLQPEDIATYYCQQWSSHIFTFGQGTKVEIKRTVAAPSVFIFPPSDKQLKSGTARVVCLLNNFYPREAKVQWKVDNALQSGNSQESVTEQDSKDSTYSLSSTLTLSKADYEKHKVYACEVTHQGLSSPVTKSFNRGEC heavy 2: EVQLVESGGGLVKTGGSHRLSCVASGFSFKKAWMNWVRYAPGKGLEWVGRIKRNSDGGTTDYAARVKGRFILSRDDSKNTLYLQMNSLKTEDTAVYYCTTLDSSSWYVGYYYMDVWGRGTTVTVSSASTKGPSVFPLAPSSKSTSGGTAALGCLVKDYFPEPVTVSWNSGALTSGVHTFPAVLQSSGLYSLSSVVTVPSSSLGTQTYICNVNHKPSNTKVDKKVEPKSCDKTHTCPPCPAPEAAGGPSVFLFPPKPKDTLMISRTPEVTCVVVDVSHEDPEVKFNWYVDGVEVHNAKTKPREEQYNSTYRVVSVLTVLHQDWLNGKEYKCKVSNKALPAPIEKTISKAKGQPRRPRVYTLPPSREEMTKNQVSLVCLVKGFYPSDIAVEWESNGQPENNYKTTPPVLDSDGSFFLYSVLTVDKSRWQQGNVFSCSVMHEALHNHYTQKSLSLSPG light 2: DIQMTQSPSSVSASVGDRVTITCRASQDINNWLAWYQRKPGDAPKILIYTASNLQSGVPSRFSGSGSGTDFTLTISSLQPEDFATYFCQQAHSLPITFGQGTRLEIKRTVAAPSVFIFPPSDEQLKSGTASVVCLLNNFYPREAKVQWKVDNALQSGNSQESVTEQDSKDSTYSLSSTLTLSKADYEKHKVYACEVTHQGLSSPVTKSFNRGEC | 0.369 nM | 0.0257 nM
2 | GOMP001_bsAb_041 (bispecific antibody, human IgG1, kappa, L234A L235A) heavy 1: QVQLVQSGAEVKKPGASVKVSCKASGYTFTSHWMHWVRKAPGQGLEWIGEFNPSNGRTNYNEEFKSKATMTVDTSTNTAYMELSSLRSEDTAVYYCASRDYDYDGRYFDYWGQGTLVTVSSASTKGPSVFPLAPSSKSTSGGTAALGCLVADYFPEPVTVSWNSGALTSGVHTFPAVLQSSGLYSLSSVVTVPSSSLGTQTYICNVNHKPSNTKVDEKVEPKSCDKTHTCPPCPAPEAAGGPSVFLFPPKPKDTLMISRTPEVTCVVVDVSHEDPEVKFNWYVDGVEVHNAKTKPREEQYNSTYRVVSVLTVLHQDWLNGKEYKCKVSNKALPAPIEKTISKAKGQPREPQVYTLPPSREEMTDNQVSLTCLVKGFYPSDIAVEWESNGQPENNYKTTPPVLMSDGSFFLASKLTVDKSRWQQGNVFSCSVMHEALHNHYTQKSLSLSPG light 1: RIQMTQSPSSLSASVGDRVTITCSASSSVTYMYWYQDKPGKAPKLLIYDTSNLASGVPSRFSGSGSGTDYTFTISSLQPEDIATYYCQQWSSHIFTFGQGTKVEIKRTVAAPSVFIFPPSDKQLKSGTARVVCLLNNFYPREAKVQWKVDNALQSGNSQESVTEQDSKDSTYSLSSTLTLSKADYEKHKVYACEVTHQGLSSPVTKSFNRGEC heavy 2: EVQLVESGGGLVKTGGSLRLSCVASGFSFKKAWMNWVRYAPGKGLEWVGRIKRNTDGGPADYAARVKGRFTLSRDDSKKTLYLQMNSLKTEDTAVYYCTTLDSSSWYVGYYYMDVWGRGTTVTVSSASTKGPSVFPLAPSSKSTSGGTAALGCLVKDYFPEPVTVSWNSGALTSGVHTFPAVLQSSGLYSLSSVVTVPSSSLGTQTYICNVNHKPSNTKVDKKVEPKSCDKTHTCPPCPAPEAAGGPSVFLFPPKPKDTLMISRTPEVTCVVVDVSHEDPEVKFNWYVDGVEVHNAKTKPREEQYNSTYRVVSVLTVLHQDWLNGKEYKCKVSNKALPAPIEKTISKAKGQPRRPRVYTLPPSREEMTKNQVSLVCLVKGFYPSDIAVEWESNGQPENNYKTTPPVLDSDGSFFLYSVLTVDKSRWQQGNVFSCSVMHEALHNHYTQKSLSLSPG light 2: DIQMTQSPSSVSASVGDRVIITCRASQDINNWLAWYLRRPGDAPKLLIYAASSLQSGVPSRFSGSGSGTDFTLTIGSLQPEDFATYYCQQAHSLPITFGQGTRLEIQRTVAAPSVFIFPPSDEQLKSGTASVVCLLNNFYPREAKVQWKVDNALQSGNSQESVTEQDSKDSTYSLSSTLTLSKADYEKHKVYACEVTHQGLSSPVTKSFNRGEC | 0.297 nM | 0.022 nM
3 | GOMP001_bsAb_042 (bispecific antibody, human IgG1, kappa, L234A L235A) heavy 1: EVQLVESGGGLVKTGGSLRLSCVASGFSFKKAWMNWVRYAPGKGLEWVGRIKRNTDGGPADYAARVKGRFTLSRDDSKKTLYLQMNSLKTEDTAVYYCTTLDSSSWYVGYYYMDVWGRGTTVTVSSASTKGPSVFPLAPSSKSTSGGTAALGCLVKDYFPEPVTVSWNSGALTSGVHTFPAVLQSSGLYSLSSVVTVPSSSLGTQTYICNVNHKPSNTKVDKKVEPKSCDKTHTCPPCPAPEAAGGPSVFLFPPKPKDTLMISRTPEVTCVVVDVSHEDPEVKFNWYVDGVEVHNAKTKPREEQYNSTYRVVSVLTVLHQDWLNGKEYKCKVSNKALPAPIEKTISKAKGQPRRPRVYTLPPSREEMTKNQVSLVCLVKGFYPSDIAVEWESNGQPENNYKTTPPVLDSDGSFFLYSVLTVDKSRWQQGNVFSCSVMHEALHNHYTQKSLSLSPG light 1: DIQMTQSPSSVSASVGDRVIITCRASQDINNWLAWYLRRPGDAPKLLIYAASSLQSGVPSRFSGSGSGTDFTLTIGSLQPEDFATYYCQQAHSLPITFGQGTRLEIQRTVAAPSVFIFPPSDEQLKSGTASVVCLLNNFYPREAKVQWKVDNALQSGNSQESVTEQDSKDSTYSLSSTLTLSKADYEKHKVYACEVTHQGLSSPVTKSFNRGEC heavy 2: QVQLVQSGAEVKKPGASVKVSCKASGYTFTSHWMHWVRYAPGQGLEWIGEFNPSNGRTNYNEKFKSKATMTVDTSTNTAYMELSSLRSEDTAVYYCASRDYDYDGRYFDYWGRGTLVTVSSASTKGPSVFPLAPSSKSTSGGTAALGCLVKDYFPEPVTVSWNSGALTSGVHTFPAVLQSSGLYSLSSVVTVPSSSLGTQTYICNVNHKPSNTKVDKKVEPKSCDKTHTCPPCPAPEAAGGPSVFLFPPKPKDTLMISRTPEVTCVVVDVSHEDPEVKFNWYVDGVEVHNAKTKPREEQYNSTYRVVSVLTVLHQDWLNGKEYKCKVSNKALPAPIEKTISKAKGQPRRPRVYTLPPSREEMTKNQVSLVCLVKGFYPSDIAVEWESNGQPENNYKTTPPVLDSDGSFFLYSVLTVDKSRWQQGNVFSCSVMHEALHNHYTQKSLSLSPG light 2: DIQMTQSPSSLSASVGDRVTITCSASSSVTYMYWYQRKPGDAPKLLIYDTSNLASGVPSRFSGSGSGTDYTFTISSLQPEDIATYYCQQWSSHIFTFGQGTKVEIKRTVAAPSVFIFPPSDEQLKSGTASVVCLLNNFYPREAKVQWKVDNALQSGNSQESVTEQDSKDSTYSLSSTLTLSKADYEKHKVYACEVTHQGLSSPVTKSFNRGEC | 0.0439 nM | 0.00223 nM
4 | GOMP001_bsAb_040 (bispecific antibody, human IgG1, kappa, L234A L235A) heavy 1: EVQLVESGGGLVKTGGSHRLSCVASGFSFKKAWMNWVRYAPGKGLEWVGRIKRNSDGGTTDYAARVKGRFILSRDDSKNTLYLQMNSLKTEDTAVYYCTTLDSSSWYVGYYYMDVWGRGTTVTVSSASTKGPSVFPLAPSSKSTSGGTAALGCLVKDYFPEPVTVSWNSGALTSGVHTFPAVLQSSGLYSLSSVVTVPSSSLGTQTYICNVNHKPSNTKVDKKVEPKSCDKTHTCPPCPAPEAAGGPSVFLFPPKPKDTLMISRTPEVTCVVVDVSHEDPEVKFNWYVDGVEVHNAKTKPREEQYNSTYRVVSVLTVLHQDWLNGKEYKCKVSNKALPAPIEKTISKAKGQPRRPRVYTLPPSREEMTKNQVSLVCLVKGFYPSDIAVEWESNGQPENNYKTTPPVLDSDGSFFLYSVLTVDKSRWQQGNVFSCSVMHEALHNHYTQKSLSLSPG light 1: DIQMTQSPSSVSASVGDRVTITCRASQDINNWLAWYQRKPGDAPKILIYTASNLQSGVPSRFSGSGSGTDFTLTISSLQPEDFATYFCQQAHSLPITFGQGTRLEIKRTVAAPSVFIFPPSDEQLKSGTASVVCLLNNFYPREAKVQWKVDNALQSGNSQESVTEQDSKDSTYSLSSTLTLSKADYEKHKVYACEVTHQGLSSPVTKSFNRGEC heavy 2: QVQLVQSGAEVKKPGASVKVSCKASGYTFTSHWMHWVRYAPGQGLEWIGEFNPSNGRTNYNEKFKSKATMTVDTSTNTAYMELSSLRSEDTAVYYCASRDYDYDGRYFDYWGRGTLVTVSSASTKGPSVFPLAPSSKSTSGGTAALGCLVKDYFPEPVTVSWNSGALTSGVHTFPAVLQSSGLYSLSSVVTVPSSSLGTQTYICNVNHKPSNTKVDKKVEPKSCDKTHTCPPCPAPEAAGGPSVFLFPPKPKDTLMISRTPEVTCVVVDVSHEDPEVKFNWYVDGVEVHNAKTKPREEQYNSTYRVVSVLTVLHQDWLNGKEYKCKVSNKALPAPIEKTISKAKGQPRRPRVYTLPPSREEMTKNQVSLVCLVKGFYPSDIAVEWESNGQPENNYKTTPPVLDSDGSFFLYSVLTVDKSRWQQGNVFSCSVMHEALHNHYTQKSLSLSPG light 2: DIQMTQSPSSLSASVGDRVTITCSASSSVTYMYWYQRKPGDAPKLLIYDTSNLASGVPSRFSGSGSGTDYTFTISSLQPEDIATYYCQQWSSHIFTFGQGTKVEIKRTVAAPSVFIFPPSDEQLKSGTASVVCLLNNFYPREAKVQWKVDNALQSGNSQESVTEQDSKDSTYSLSSTLTLSKADYEKHKVYACEVTHQGLSSPVTKSFNRGEC | 0.0499 nM | 0.0038 nM
